B1: Rev7, accessory subunit of DNA polymerase ζ (Polζ) (natural protein, Saccharomyces cerevisiae, UniProt P38927 1-245, looked up)
chain: MNRWVEKWLRVYLKCYINLILFYRNVYPPQSFDYTTYQSFNLPQFVPINRHPALIDYIEELILDVLSKLTHVYRFSICIINKKNDLCIEKYVLDFSELQHVDKDDQIITETEVFDEFRSSLNSLIMHLEKLPKVNDDTITFEAVINAIELELGHKLDRNRRVDSLEEKAEIERDSNWVKCQEDENLPDNNGFQPPKIKLTSLVGSDVGPLIIHQFSEKLISGDDKILNGVYSQYEEGESIFGSLF
notes: Rev7, Saccharomyces cerevisiae, accessory subunit of Polζ, full-length (residues 1-245); Two copies (Rev7A and Rev7B) stand in the pentameric holoenzyme; also called Rev7B; source: expressed in yeast from plasmids pBJ1462 and pBJ1524, purified as the Polζ holoenzyme
B2: Pol31, accessory subunit of DNA polymerase ζ (Polζ) (natural protein, Saccharomyces cerevisiae, UniProt P46957 1-487, looked up)
chain: MDALLTKFNEDRSLQDENLSQPRTRVRIVDDNLYNKSNPFQLCYKKRDYGSQYYHIYQYRLKTFRERVLKECDKRWDAGFTLNGQLVLKKDKVLDIQGNQPCWCVGSIYCEMKYKPNVLDEVINDTYGAPDLTKSYTDKEGGSDEIMLEDESGRVLLVGDFIRSTPFITGVVVGILGMEAEAGTFQVLDICYPTPLPQNPFPAPIATCPTRGKIALVSGLNLNNTSPDRLLRLEILREFLMGRINNKIDDISLIGRLLICGNSVDFDIKSVNKDELMISLTEFSKFLHNILPSISVDIMPGTNDPSDKSLPQQPFHKSLFDKSLESYFNGSNKEILNLVTNPYEFSYNGVDVLAVSGKNINDICKYVIPSNDNGESENKVEEGESNDFKDDIEHRLDLMECTMKWQNIAPTAPDTLWCYPYTDKDPFVLDKWPHVYIVANQPYFGTRVVEIGGKNIKIISVPEFSSTGMIILLDLETLEAETVKIDI
notes: Pol31, Saccharomyces cerevisiae, accessory subunit of Polζ, full-length (residues 1-487); source: expressed in yeast from plasmids pBJ1462 and pBJ1524, purified as the Polζ holoenzyme
B3: Pol32, accessory subunit of DNA polymerase ζ (Polζ) (natural protein, Saccharomyces cerevisiae, UniProt P47110 1-350, looked up)
chain: MDQKASYFINEKLFTEVKPVLFTDLIHHLKIGPSMAKKLMFDYYKQTTNAKYNCVVICCYKDQTIKIIHDLSNIPQQDSIIDCFIYAFNPMDSFIPYYDIIDQKDCLTIKNSYELKVSESSKIIERTKTLEEKSKPLVRPTARSKTTPEETTGRKSKSKDMGLRSTALLAKMKKDRDDKETSRQNELRKRKEENLQKINKQNPEREAQMKELNNLFVEDDLDTEEVNGGSKPNSPKETDSNDKDKNNDDLEDLLETTAEDSLMDVPKIQQTKPSETEHSKEPKSEEEPSSFIDEDGYIVTKRPATSTPPRKPSPVVKRALSSSKKQETPSSNKRLKKQGTLESFFKRKAK
notes: Pol32, Saccharomyces cerevisiae, accessory subunit of Polζ, full-length (residues 1-350); The full-length protein was in the sample; also called Pol32N; source: expressed in yeast from plasmids pBJ1462 and pBJ1524, purified as the Polζ holoenzyme
B4: A:C mismatched palindromic template-primer (dsDNA)
DNA 1: TAATGATAGGGGAGGGAATCCCTCCCCTAC
DNA 2: B4 DNA 1
modifications: 3'-dideoxy C terminus

Experiments:
[1] = biological target: T1, Polζ holoenzyme (Rev3-Rev7-Pol31-Pol32) (Saccharomyces cerevisiae, UniProt P14284); assay: cryo-EM structure, […] Å; format: binding; settings: ternary complex with dideoxy-terminated A:C mismatched primer-template DNA, templating G; 1 mM dCTP; CaCl2 (Ca2+ metal B); Rev3 active site, fingers open
T1 construct: full-length subunits, holoenzyme expressed in yeast from plasmids pBJ1462 and pBJ1524; pentameric complex with two Rev7 (Rev7A, Rev7B); with DNA polymerase zeta processivity subunit; DNA polymerase delta small subunit; DNA polymerase delta subunit 3
T1 sequence (P14284 whole entry, one chain of several): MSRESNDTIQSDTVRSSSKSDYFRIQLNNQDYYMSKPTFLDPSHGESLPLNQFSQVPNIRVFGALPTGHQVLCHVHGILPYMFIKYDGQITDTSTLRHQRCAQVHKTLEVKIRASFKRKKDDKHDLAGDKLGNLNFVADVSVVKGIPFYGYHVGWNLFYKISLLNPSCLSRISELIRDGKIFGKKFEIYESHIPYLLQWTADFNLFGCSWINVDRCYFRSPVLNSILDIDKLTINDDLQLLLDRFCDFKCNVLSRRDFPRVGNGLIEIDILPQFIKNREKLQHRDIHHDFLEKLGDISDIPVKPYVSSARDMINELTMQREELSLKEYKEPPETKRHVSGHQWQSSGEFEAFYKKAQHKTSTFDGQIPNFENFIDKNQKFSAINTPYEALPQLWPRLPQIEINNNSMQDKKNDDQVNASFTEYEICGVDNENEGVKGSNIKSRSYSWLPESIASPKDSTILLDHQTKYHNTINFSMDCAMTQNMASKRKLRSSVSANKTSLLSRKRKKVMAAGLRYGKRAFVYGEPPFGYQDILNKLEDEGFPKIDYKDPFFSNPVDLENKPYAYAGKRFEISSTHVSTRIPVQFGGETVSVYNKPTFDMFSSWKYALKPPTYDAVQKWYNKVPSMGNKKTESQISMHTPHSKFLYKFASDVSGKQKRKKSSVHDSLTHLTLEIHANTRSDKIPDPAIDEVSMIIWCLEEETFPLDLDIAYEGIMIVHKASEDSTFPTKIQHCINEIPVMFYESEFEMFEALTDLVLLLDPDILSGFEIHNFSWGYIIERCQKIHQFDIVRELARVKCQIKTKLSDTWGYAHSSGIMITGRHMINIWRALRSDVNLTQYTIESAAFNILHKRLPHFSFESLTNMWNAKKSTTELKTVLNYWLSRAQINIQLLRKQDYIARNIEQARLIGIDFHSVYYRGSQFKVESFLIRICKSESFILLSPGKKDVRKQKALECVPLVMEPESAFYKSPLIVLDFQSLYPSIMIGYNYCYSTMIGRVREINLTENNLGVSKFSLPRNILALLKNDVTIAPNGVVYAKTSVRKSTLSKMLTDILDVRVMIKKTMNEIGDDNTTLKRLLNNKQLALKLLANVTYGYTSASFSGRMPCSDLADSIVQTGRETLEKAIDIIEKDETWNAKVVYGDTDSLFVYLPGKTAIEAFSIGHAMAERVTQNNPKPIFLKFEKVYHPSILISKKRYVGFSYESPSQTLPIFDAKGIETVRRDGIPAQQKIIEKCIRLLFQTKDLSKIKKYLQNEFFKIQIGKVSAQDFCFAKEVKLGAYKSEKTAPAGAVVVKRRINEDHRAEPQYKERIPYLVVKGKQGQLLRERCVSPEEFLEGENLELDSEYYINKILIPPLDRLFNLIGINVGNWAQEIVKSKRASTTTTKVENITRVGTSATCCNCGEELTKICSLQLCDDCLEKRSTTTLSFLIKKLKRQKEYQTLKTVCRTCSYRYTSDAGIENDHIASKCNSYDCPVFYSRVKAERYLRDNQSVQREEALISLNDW

[2] = biological target: T2, Rev3, catalytic subunit of DNA polymerase ζ (Polζ) (Saccharomyces cerevisiae, UniProt P14284 1-1504); assay: cryo-EM structure; Polζ holoenzyme incubated in a CaCl2 supplemented buffer with palindromic DNA (1.5 molar excess) with an A:C mismatch at the primer terminus, 1 mM dCTP; nominal resolution 3.05 Å; settings: both partners purified
T2 construct: Rev3, Saccharomyces cerevisiae, catalytic subunit of Polζ, full-length (residues 1-1,504); also called catalytic Rev3; source: expressed in yeast from plasmids pBJ1462 and pBJ1524, purified as the Polζ holoenzyme
T2 sequence (P14284 whole entry, the tested form may be a part): as the sequence (P14284 whole entry, one chain of several) above

[3] = biological target: B3; assay: as above; settings: both partners purified
[4] = biological target: B2; assay: as above; settings: both partners purified
Rev3 (Polζ catalytic …) = biological target: Rev3 (Polζ catalytic subunit);Rev7;Pol31;Pol32 (Saccharomyces cerevisiae;Saccharomyces …, UniProt P14284;P38927;P46957;P47110 1-1504;1-245;1-487;1-350, |||); assay: cryo-EM structure (3.05 Å); 1 mM dCTP, CaCl2; metal ion B; CaCl2-supplemented buffer, DNA in 1.5 molar excess, 1 mM dCTP; salt, pH and temperature not given; settings: protein: recombinant;recombinant;recombinant;recombinant; tags: ;;;; copies: 1;2;1;1; self-annealed palindrome, 2 copies of one strand; 5' overhang 5 nt (TAATG, templating G); A6:C30 mismatch at primer terminus; central A:A
Rev3 (Polζ catalytic subunit);Rev7;Pol31;Pol32, sequence (P14284 whole entry, one chain of several): as above

Molecule: Nc1ccn([C@H]2C[C@H](O)[C@@H](COP(=O)(O)OP(=O)(O)OP(=O)(O)O)O2)c(=O)n1 [dCTP]
- cryo-EM structure, 3.05 Å [1]: Rev3 is observed with the incoming nucleotide dCTP (position P0) opposite the templating base G

Molecule: B1
- binding result [2]: binds
- binding result [3]: binds

Molecule: B2
- binding result [2]: binds

Molecule: B3
- binding result [4]: binds

Molecule: B4
- binding result (Rev3 (Polζ catalytic …)): binds

Source: article PMC8881453, “Cryo-EM structure of translesion DNA synthesis polymerase ζ with a base pair mismatch” (Nature Communications, 2022)
